Test system: T1, Cc1cc(=O)oc2cc(NC(=O)CC[C@H](N)C(=O)O)ccc12
T1 construct: purchased Asahi Kasei Co., Ltd. HC-GTP (lot 603AA)
Assay: Hydrolytic assay of human GGT (Michaelis constant of substrate)
Format: biochemical
Settings: other: human GGT, substrate concentration 4.0 μM
Procedure: In the experiment, at first, Michaelis constants (Km) for 7-(γ-L-glutamylamino)-4-methylcoumarin as substrate were measured by a fluorescence method [Smith, G. D.; Ding, J. L.; Peters, T. J. Anal. Biochem. 100, 136-139 (1979)] for the hydrolytic activities of E-coli GGT and human GGT.
In the hydrolytic assay of human GGT, the measurement was carried out in the same manner as that in the hydrolytic assay of E-coli GGT, except that the substrate concentration was changed to […] and therefore, the explanation of the common portions was omitted.

human GGT (Homo sapiens), sequence (chain, as listed by the source): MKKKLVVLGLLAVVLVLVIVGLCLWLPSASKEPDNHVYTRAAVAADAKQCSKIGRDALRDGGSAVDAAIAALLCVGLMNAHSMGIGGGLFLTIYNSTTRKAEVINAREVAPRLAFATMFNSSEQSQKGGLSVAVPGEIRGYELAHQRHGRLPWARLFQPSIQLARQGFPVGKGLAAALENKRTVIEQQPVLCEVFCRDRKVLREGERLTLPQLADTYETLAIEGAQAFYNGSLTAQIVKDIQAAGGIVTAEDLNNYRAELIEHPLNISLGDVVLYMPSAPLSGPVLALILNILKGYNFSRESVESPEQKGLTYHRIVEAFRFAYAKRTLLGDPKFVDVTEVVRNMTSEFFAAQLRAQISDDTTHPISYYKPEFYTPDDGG
human GGT (Homo sapiens), sequence (chain, as listed by the source): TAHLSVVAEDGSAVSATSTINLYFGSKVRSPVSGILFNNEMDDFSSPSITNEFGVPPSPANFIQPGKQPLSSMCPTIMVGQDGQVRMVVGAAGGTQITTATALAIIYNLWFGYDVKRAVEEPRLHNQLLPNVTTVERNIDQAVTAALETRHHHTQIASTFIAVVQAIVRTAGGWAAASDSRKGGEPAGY

Question: How did the Km turn out when human GGT (Homo sapiens) was run?
Answer: 12.6 µM

Reference: patent US8129557B2, “Phosphonic acid diester derivative and method for producing thereof” (priority 2005, dated 2012)
